# Source: patent publication US20220323445A1, “REDUCING IMMUNOGENICITY TO PEGLOTICASE” (Horizon Therapeutics Ireland DAC, priority 2020, published 2022)
# B1: pegloticase (protein)
# chain: TYKKNDEVEFVRTGYGKDMIKVLHIQRDGKYHSIKEVATTVQLTLSSKKDYLHGDNSDVIPTDTIKNTVNVLAKFKGIKSIETFAVTICEHFLSSFKHVIRAQVYVEEVPWKRFEKNGVKHVHAFIYTPTGTHFCEVEQIRNGPPVIHSGIKDLKVLKTTQSGFEGFIKDQFTTLPEVKDRCFATQVYCKWRYHQGRDVDFEATWDTVRSIVLQKFAGPYDKGEYSPSVQKTLYDIQVLTLGQVPEIEDMEISLPNIHYLNIDMSKMGLINKEEVLLPLDNPYGKITGTVKRKLSSRL
# modifications: monomethoxy PEG conjugated; Krystexxa Sequence
# notes: covalent conjugate of uricase produced by a genetically modified strain of Escherichia coli and monomethoxypoly (ethylene glycol)
# Tested on: serum uric acid (sUA)
# Test: Serum uric acid (sUA) levels and sUA responders, open-label study of pegloticase with MTX (NCT03635957)
# Format: in vivo, human
# Experimental: The primary objective is to estimate the response rate during Month 6 (Weeks 20, 22, and 24), as measured by the sustained normalization of serum uric acid (SUA) to <6 mg/dL for at least 80% of the time during Month 6 in subjects receiving KXX with MTX.
# The primary efficacy outcome endpoint is the sustained normalization of SUA to <6 mg/dL for at least 80% of the time during month 6 (weeks 20, 22, and 24) in subjects receiving KXX with MTX. This is slightly below the urate solubility threshold and this threshold has been the accepted standard for nearly all modern gout trials. Participants who achieve this endpoint were classified as “responders.” Serum uric acid (SUA) responders may also be defined as participants achieving and maintaining SUA <6 mg/dL for at least 80% of the time during Month 6 (Weeks 20, 22, and 24).
# Blood samples may be collected prior to each pegloticase infusion for measurement of SUA levels using the Beckman Coulter AU System Uric Acid procedure. Participants were declared “non-responders” if there were SUA measures >6 mg/dL at 2 consecutive study visits beginning with the week 2 visit. […] If the SUA goal is not maintained before or at the 12-week mark, it was assumed that the participant had developed clinically relevant anti-pegloticase antibody and they received no further infusions. This assumption and subsequent discontinuation of pegloticase was consistent with the protocol of large phase III randomized controlled trials and the product label. A formal stopping rule was 2 occasions of SUA levels of greater than 6 mg/dL.
# Clinical Chemistry—Blood samples were collected prior to each pegloticase infusion for measurement of SUA levels (primary efficacy parameter) using the Beckman Coulter AU System Uric Acid procedure. In this procedure uric acid is converted to hydrogen peroxide. Hydrogen peroxide reacts with reagent to produce a chromophore which is read bichromatically at 660/800 nm. The amount of dye formed is proportional to the uric acid concentration in the sample.
# Serum samples for measurement of SUA levels were collected at the Screening Visit, the Week −4 Visit (prior to the first dose of MTX), and the Week −2 Visit during the MTX Run-in Period; within 48 hours prior to each pegloticase infusion and after the end of each pegloticase infusion prior to discharge from the site during the Pegloticase+IMM Period; at the non-infusion Week 52/End of Study/Early Termination Visits and at the Post Treatment 3 and 6 Month Follow-up Visits. Additional serum samples for SUA levels were collected at optional non-infusion (Frequent Sampling) Visits at Weeks 1 and 7. […] Subjects with SUA level >6 mg/dL at 2 consecutive visits beginning at Week 2 visit discontinued treatment, completed the End of Pegloticase Infusion Visit procedures within 2 weeks and continued the subject visits according to the protocol (without treatment).
# Efficacy analyses were performed using the modified intention-to-treat (mITT) population, defined as all enrolled subjects who received ≥1 dose of pegloticase. The proportion of Month 6 responders was summarized, along with a 95% confidence interval for the proportion. The proportion of Month 3 and overall (Months 3 and 6 combined) responders was analyzed similarly.
# A subject was declared a non-responder if the subject had SUA level >6 mg/dL at 2 consecutive study visits beginning with the Week 2 Visit. In addition, a subject who withdraws from study treatment for any reason after the first dose of pegloticase in the KXX+MTX Period and prior to Month 6 (for the primary endpoint) or Month 3 (for the secondary endpoint) was considered a non-responder if SUA values were not collected at the planned time points.
# Patients were administered oral MTX (15 mg/week) and folate (1 mg/day) 4 weeks prior to the first pegloticase infusion (Day 1) and throughout the pegloticase treatment period. […]
# [1] = Week 6 - Pre-Infusion, Month 6 sUA Responders
# [2] = Week 6 - Pre-Infusion, mITT, n=13
# [3] = Week 8 - Post-Infusion, Month 6 sUA Non-Responders
# [4] = Week 8 - Post-Infusion, Month 6 sUA Responders
# [5] = Week 8 - Post-Infusion, mITT, n=12
# [6] = Week 8 - Pre-Infusion, Month 6 sUA Non-Responders
# [7] = Week 8 - Pre-Infusion, Month 6 sUA Responders
# [8] = Week 8 - Pre-Infusion, mITT, n=12
# [9] = Week 10 - Post-Infusion, Month 6 sUA Responders
# [10] = Week 10 - Post-Infusion, mITT, n=11
# [11] = Week 10 - Pre-Infusion, Month 6 sUA Non-Responders
# [12] = Week 10 - Pre-Infusion, Month 6 sUA Responders
# [13] = Week 10 - Pre-Infusion, mITT, n=12
# [14] = Week 12 - Post-Infusion, Month 6 sUA Responders
molecule,measurement,setting,value
B1,"sUA < 6 mg/dL, %",[1],(100%)
same,"sUA Change from Baseline, Mean",[1],-8.97 mg/dL
same,"sUA Change from Baseline, Median",[1],-8.80 mg/dL
same,"sUA Observed, Mean",[1],0.30 mg/dL
same,"sUA Observed, Median",[1],0.30 mg/dL
same,"sUA < 6 mg/dL, n (%)",[2],12 (92.3%)
same,"sUA Change from Baseline, Mean (SD)",[2],−8.31 (3.538) mg/dL
same,"sUA Change from Baseline, Median",[2],-8.80 mg/dL
same,"sUA Observed, Mean (SD)",[2],0.91 (2.191) mg/dL
same,"sUA Observed, Median",[2],0.30 mg/dL
same,"sUA < 6 mg/dL, %","Week 7, Month 6 sUA Responders",(100%)
same,"sUA Change from Baseline, Mean","Week 7, Month 6 sUA Responders",-8.90 mg/dL
same,"sUA Observed, Mean","Week 7, Month 6 sUA Responders",0.30 mg/dL
same,"sUA < 6 mg/dL, n (%)","Week 7, mITT, n=4",4 (100%)
same,"sUA Change from Baseline, Mean (SD)","Week 7, mITT, n=4",−8.90 (4.755) mg/dL
same,"sUA Change from Baseline, Median","Week 7, mITT, n=4",-7.85 mg/dL
same,"sUA Observed, Mean (SD)","Week 7, mITT, n=4",0.30 (0.000) mg/dL
same,"sUA Observed, Median","Week 7, mITT, n=4",0.30 mg/dL
same,"sUA < 6 mg/dL, %",[3],(100%)
same,"sUA Change from Baseline, Mean",[3],-9.10 mg/dL
same,"sUA Observed, Mean",[3],0.30 mg/dL
same,"sUA < 6 mg/dL, %",[4],(100%)
same,"sUA Change from Baseline, Mean",[4],-8.97 mg/dL
same,"sUA Observed, Mean",[4],0.30 mg/dL
same,"sUA < 6 mg/dL, n (%)",[5],12 (100%)
same,"sUA Change from Baseline, Mean (SD)",[5],−8.98 (2.679) mg/dL
same,"sUA Change from Baseline, Median",[5],-8.95 mg/dL
same,"sUA Observed, Mean (SD)",[5],0.30 (0.000) mg/dL
same,"sUA Observed, Median",[5],0.30 mg/dL
same,"sUA Change from Baseline, Mean",[6],-0.50 mg/dL
same,"sUA Observed, Mean",[6],8.90 mg/dL
same,"sUA < 6 mg/dL, %",[7],(100%)
same,"sUA Change from Baseline, Mean",[7],-8.91 mg/dL
same,"sUA Observed, Mean",[7],0.37 mg/dL
same,"sUA < 6 mg/dL, n (%)",[8],11 (91.7%)
same,"sUA Change from Baseline, Mean (SD)",[8],−8.20 (3.624) mg/dL
same,"sUA Change from Baseline, Median",[8],-8.33 mg/dL
same,"sUA Observed, Mean (SD)",[8],1.08 (2.472) mg/dL
same,"sUA Observed, Median",[8],0.30 mg/dL
same,"sUA < 6 mg/dL, %",[9],(100%)
same,"sUA Change from Baseline, Mean",[9],-8.97 mg/dL
same,"sUA Change from Baseline, Median",[9],-8.80 mg/dL
same,"sUA Observed, Mean",[9],0.30 mg/dL
same,"sUA Observed, Median",[9],0.30 mg/dL
same,"sUA < 6 mg/dL, n (%)",[10],11 (100%)
same,"sUA Change from Baseline, Mean (SD)",[10],−8.97 (2.810) mg/dL
same,"sUA Change from Baseline, Median",[10],-8.80 mg/dL
same,"sUA Observed, Mean (SD)",[10],0.30 (0.000) mg/dL
same,"sUA Observed, Median",[10],0.30 mg/dL
same,"sUA Change from Baseline, Mean",[11],-1.30 mg/dL
same,"sUA Observed, Mean",[11],8.10 mg/dL
same,"sUA < 6 mg/dL, %",[12],(100%)
same,"sUA Change from Baseline, Mean",[12],-8.97 mg/dL
same,"sUA Observed, Mean",[12],0.30 mg/dL
same,"sUA < 6 mg/dL, n (%)",[13],11 (91.7%)
same,"sUA Change from Baseline, Mean (SD)",[13],−8.33 (3.476) mg/dL
same,"sUA Change from Baseline, Median",[13],-8.70 mg/dL
same,"sUA Observed, Mean (SD)",[13],0.95 (2.252) mg/dL
same,"sUA Observed, Median",[13],0.30 mg/dL
same,"sUA < 6 mg/dL, %",[14],(100%)
same,"sUA Change from Baseline, Mean",[14],-9.13 mg/dL
same,"sUA Change from Baseline, Median",[14],-9.05 mg/dL
same,"sUA Observed, Mean",[14],0.30 mg/dL
same,"sUA Observed, Median",[14],0.30 mg/dL
same,"sUA < 6 mg/dL, n (%)","Week 12 - Post-Infusion, mITT, n=10",10 (100%)
